Experimental data from patent US10766952B2, “Methods for reducing migraine frequency in a subject in need thereof” (Beth Israel Deaconess Medical Center, Inc., priority 2017, dated 2020).

T1: rat α-CGRP (Rattus norvegicus, UniProt P01256)
T1 construct: rat α (1-37); host or cells: synthetic peptide
T1 sequence (P01256 83-119 limits assumed): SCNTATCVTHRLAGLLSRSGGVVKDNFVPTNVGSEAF

T2: human α-CGRP (Homo sapiens, UniProt P06881)
T2 construct: 1-37 (WT); purchased; host or cells: synthetic peptide
T2 sequence (P06881 83-119 limits assumed): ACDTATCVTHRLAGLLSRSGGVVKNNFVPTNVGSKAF


Columns and labels:
rat α-CGRP = molecular target: T1, rat α-CGRP; assay: Biacore affinity of antibody G1 Fab and variants to rat α-CGRP; type: binding; details: 37° C., Fab, screening mode unless underlined
Outline: (§1)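 Fab fragments flowed over N-biotinylated CGRP captured on SA chip in HBS-EP pH 7.4; titration series fit globally to 1:1 Langmuir model, KD = koff/kon. For very slow off-rates, kon from 550 nM–1 nM series with 30 s dissociation, koff from 2-hour dissociation.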

human α-CGRP = molecular target: T2, human α-CGRP; assay: Biacore affinity of antibody G1 Fab and variants to human α-CGRP; type: binding; details: 37° C., Fab, screening mode unless underlined
Outline: as §1

| α-rat koff (rat α-CGRP) [s⁻¹] | α-human koff (human α-CGRP) [s⁻¹] | Molecule |
| --- | --- | --- |
| 0.36 | 0.00128 | M40: G1 variant: L1 R28N; L2 G50A,L56T; H2 E54K,A57L; HC-FW3 L99T,A100V (antibody, V domains shown) VH: EVQLVESGGGLVQPGGSLRLSCAASGFTFSNYWISWVRQAPGKGLEWVAEIRSKSDLSATHYAEAVKGRFTISRDNAKNSLYLQMNSLRAEDTAVYYCTVYFDYGLAIQNYWGQGTLVTVSS VL: EIVLTQSPATLSLSPGERATLSCKASKNVTTYVSWYQQKPGQAPRLLIYAASNRYTGIPARFSGSGSGTDFTLTISSLEPEDFAVYYCSQSYNYPYTFGQGTKLEIK |
| 0.00453 | 0.000263 | M43: G1 variant: L1 R28N; L2 G50A,L56T; H2 E54K,A57N,S58C; HC-FW3 L99T,A100V (antibody, V domains shown) VH: EVQLVESGGGLVQPGGSLRLSCAASGFTFSNYWISWVRQAPGKGLEWVAEIRSKSDNCATHYAEAVKGRFTISRDNAKNSLYLQMNSLRAEDTAVYYCTVYFDYGLAIQNYWGQGTLVTVSS VL: EIVLTQSPATLSLSPGERATLSCKASKNVTTYVSWYQQKPGQAPRLLIYAASNRYTGIPARFSGSGSGTDFTLTISSLEPEDFAVYYCSQSYNYPYTFGQGTKLEIK |
| 0.00752 | 0.000417 | M42: G1 variant: L1 R28N; L2 G50A,L56T; H2 E54K,A57N,H61F; HC-FW3 L99T,A100V (antibody, V domains shown) VH: EVQLVESGGGLVQPGGSLRLSCAASGFTFSNYWISWVRQAPGKGLEWVAEIRSKSDNSATFYAEAVKGRFTISRDNAKNSLYLQMNSLRAEDTAVYYCTVYFDYGLAIQNYWGQGTLVTVSS VL: EIVLTQSPATLSLSPGERATLSCKASKNVTTYVSWYQQKPGQAPRLLIYAASNRYTGIPARFSGSGSGTDFTLTISSLEPEDFAVYYCSQSYNYPYTFGQGTKLEIK |
| 0.00558 | 0.000211 | M45: G1 variant: L1 R28N; L2 G50A,L56T; H2 E54K,A57N,S58E,E64D; HC-FW3 L99T,A100V (antibody, V domains shown) VH: EVQLVESGGGLVQPGGSLRLSCAASGFTFSNYWISWVRQAPGKGLEWVAEIRSKSDNEATHYADAVKGRFTISRDNAKNSLYLQMNSLRAEDTAVYYCTVYFDYGLAIQNYWGQGTLVTVSS VL: EIVLTQSPATLSLSPGERATLSCKASKNVTTYVSWYQQKPGQAPRLLIYAASNRYTGIPARFSGSGSGTDFTLTISSLEPEDFAVYYCSQSYNYPYTFGQGTKLEIK |
| 0.00613 | 0.00021 | M44: G1 variant: L1 R28N; L2 G50A,L56T; H2 E54K,A57N,S58E; HC-FW3 L99T,A100V (antibody, V domains shown) VH: EVQLVESGGGLVQPGGSLRLSCAASGFTFSNYWISWVRQAPGKGLEWVAEIRSKSDNEATHYAEAVKGRFTISRDNAKNSLYLQMNSLRAEDTAVYYCTVYFDYGLAIQNYWGQGTLVTVSS VL: EIVLTQSPATLSLSPGERATLSCKASKNVTTYVSWYQQKPGQAPRLLIYAASNRYTGIPARFSGSGSGTDFTLTISSLEPEDFAVYYCSQSYNYPYTFGQGTKLEIK |
| 0.00453 | 0.00021 | M41: G1 variant: L1 R28N; L2 G50A,L56T; H2 E54K,A57N,E64D; HC-FW3 L99T,A100V (antibody, V domains shown) VH: EVQLVESGGGLVQPGGSLRLSCAASGFTFSNYWISWVRQAPGKGLEWVAEIRSKSDNSATHYADAVKGRFTISRDNAKNSLYLQMNSLRAEDTAVYYCTVYFDYGLAIQNYWGQGTLVTVSS VL: EIVLTQSPATLSLSPGERATLSCKASKNVTTYVSWYQQKPGQAPRLLIYAASNRYTGIPARFSGSGSGTDFTLTISSLEPEDFAVYYCSQSYNYPYTFGQGTKLEIK |
